Assay results as given in patent US20170369576A1 (UBI US, published 2017).
“And” between values parts separate entries of the source, which are not always exact repeats. Equal values may be shown once.

What was measured:
[1] = target: T1, human CD4, membrane-bound on cells (HPB-ALL cells, blood/PBMC CD4+ T cells, assay target cells) (human, UniProt P01730 26-458); test: cell-based or functional assay
[2] = target: T1, human CD4, membrane-bound on cells …; test: binding to human CD4 positive T cells (FIG. 21)
[3] = target: T1, human CD4, membrane-bound on cells …; test: comparison of IC50 values, competition FACS on HPB-ALL cells
[4] = target: T1, human CD4, membrane-bound on cells …; test: competition FACS on HPB-ALL cells; inhibition of dB4-Alexa (250 ng/mL)
Experimental: On V-bottomed microplates, aliquots of 2×10⁵ cells in 0.1 mL per well were added, centrifuged, and liquid discarded. […] The cells were washed once and the liquid discarded after centrifugation. To each well, aliquots of 200 μL of binding buffer were added and transferred to microdilution tubes for flow cytometric analysis. The binding intensity (mean fluorescence intensity, MFI), based on an inlet of 5,000 cells per sample, was read on FACS.

recombinant soluble CD4 = target: T2, recombinant soluble CD4 (UniProt P01730 26-390, limits assumed); test: competition ELISA on coated sCD4/p2704a mixture; inhibition of B4-biotin (10 µg/mL)
T2 construct: also called sCD4; rsCD4

[5] = target: T1, human CD4, membrane-bound on cells …; test: FACS, fresh blood CD4+ T cells of subject F2; bound dB4 detected by goat anti-hIgG-FITC
Text: (§1) The samples were calibrated with reference beads for fluorescence reading.

[6] = target: T1, human CD4, membrane-bound on cells …; test: FACS, fresh blood CD4+ T cells of subject F3; bound dB4 detected by goat anti-hIgG-FITC
Text: as §1

[7] = target: T1, human CD4, membrane-bound on cells …; test: FACS, fresh blood CD4+ T cells of subject M3; bound dB4 detected by goat anti-hIgG-FITC
Text: as §1

[8] = target: T1, human CD4, membrane-bound on cells …; test: FACS, fresh blood CD4+ T cells, mean of six subjects; bound dB4 detected by goat anti-hIgG-FITC
Text: as §1

[9] = target: T1, human CD4, membrane-bound on cells …; test: FACS direct binding to HPB-ALL cells, on ice 1 h, goat F(ab)2 anti-huIgG Fc-FITC; EC50 by MFI, exp. 1
Experimental: (§2) On V-bottomed microplates, aliquots of 2×10⁵ cells in 0.1 mL per well were added, centrifuged, and liquid discarded. […] This step was repeated one more time. The cells from the three incubations (passages) were investigated. […] The cells were washed once and the liquid discarded after centrifugation. To each well, aliquots of 200 μL of binding buffer were added and transferred to microdilution tubes for flow cytometric analysis. The binding intensity (mean fluorescence intensity, MFI), based on an inlet of 5,000 cells per sample, was read on FACS.
(§3) The absolute MFI values were also normalized to % MFI for purpose of between-passage comparison.

[10] = target: T1, human CD4, membrane-bound on cells …; test: FACS direct binding to HPB-ALL cells, on ice 1 h, goat F(ab)2 anti-huIgG Fc-FITC; EC50 by MFI, exp. 2
Experimental: as §2, §3

[11] = target: T1, human CD4, membrane-bound on cells …; test: FACS direct binding to HPB-ALL cells, on ice 1 h, goat F(ab)2 anti-huIgG Fc-FITC; EC50 by % MFI, exp. 3
Experimental: as §2, §3

[12] = target: T1, human CD4, membrane-bound on cells …; test: FACS direct binding to HPB-ALL cells, on ice 1 h, goat F(ab)2 anti-huIgG Fc-FITC; EC50 by MFI, mean of 3
Experimental: as §2, §3

[13] = target: T1, human CD4, membrane-bound on cells …; test: FACS direct binding to HPB-ALL cells, on ice 1 h, goat F(ab)2 anti-huIgG Fc-FITC; EC50 by % MFI, mean of 3
Experimental: as §2, §3

[14] = target: T1, human CD4, membrane-bound on cells …; test: FACS, fresh blood CD4+ T cells of subject F1; free CD4 sites left by dB4 detected by dB4C7-Alexa (250 ng/mL)
[15] = target: T1, human CD4, membrane-bound on cells …; test: FACS, fresh blood CD4+ T cells of subject F2; free CD4 sites left by dB4 detected by dB4C7-Alexa (250 ng/mL)
[16] = target: T1, human CD4, membrane-bound on cells …; test: saturation binding to HPB-ALL cells on ice 1 h; free antibody by ELISA, bound by subtraction, curve fit; exp. 3
Experimental: (§4) The resultant saturating free-vs.-bound concentration profiles were analyzed on SigmaPlot by curve-fitting based on the equation, [B]=Bmax·{[F]/([F]+Kd)}, where the respective [B] and [F] stand for the bound and free concentrations.
(§5) The binding study was conducted at cold and/or under 0.05% azide to avoid a potential endocytosis of the ligand-receptor complexes. Incubation at room temperature or 37° C. could allow a reaction plateau to be reached sooner. […] The supernatants were collected for determination by ELISA of the free drug concentrations, and the bound fractions were obtained by subtraction from the total.

[17] = target: T1, human CD4, membrane-bound on cells …; test: FACS direct binding to blood CD4+ T cells of one individual, 4°C 1 h (printed as IC50 here, as EC50 in paragraph 342)
Text: The MFI values reflect the degree of receptor occupancy, in particular when these values are normalized and expressed as % MFI.

[18] = target: T1, human CD4, membrane-bound on cells …; test: saturation binding to HPB-ALL cells on ice 1 h; free antibody by ELISA, bound by subtraction, curve fit; mean of 3
Experimental: as §4, §5

B1: mAb dB4C7 (human deimmunized, Fc-aglycosylated IgG1 derived from murine mAb B4, expressed by clone 7) (antibody, V domains shown)
VH: QVQLVQSGPELKKPGASVKVSCKASGYTFTDYVIHWVKQATGQGLEWIGEIYPGSGSAYSNAKFKDRVTMTADKSSNTAYMELSSLTSDDTAVYFCARRGNGTGFAYWGQGTLVTVSS
VL: DIVLTQSPASLAVSLGQRATITCKAGQSVDYDGDSYMNWYQQKPGQPPKLLIYVASNLESGIPARFSGSGSGTDFTLNIHPVEENDAATYYCQQSYKDPLTFGQGTKLEIKR
modifications: N-glycosylated at Asn101 in the Fv; Fc N-glycosylation site removed (N298H)
notes: treated as one molecule; also called deimmunized B4
IC50 of HIV entry inhibition, pseudotype virus 92TH594 (R5/X4), U87-CD4+/CCR5+/CXCR4+ cells [1]: 0.05 µg/mL
IC50 of HIV entry inhibition, pseudotype virus HXB2 (X4), U87-CD4+/CCR5+/CXCR4+ cells [1]: 0.4 µg/mL
EC50 [2]: 0.33 µg/mL
fold binding affinity against gp120 MN [3]: ≥ 50 fold
IC50 [4]: 0.197 µg/mL and 1.8 nM
IC50 (recombinant soluble CD4): 8.19 µg/mL
EC50 [5]: 0.0057 µg/mL
EC50 [6]: 0.0037 µg/mL
EC50 [7]: 0.0026 µg/mL
EC50 [8]: 0.0041 µg/mL
EC50 [9]: 0.0421 µg/mL
EC50 [10]: 0.0437 µg/mL
EC50 [11]: 0.0407 µg/mL
EC50 [12]: 0.0422 µg/mL
EC50 [13]: 0.0429 µg/mL
EC50 [14]: 0.0043 µg/mL
EC50 [15]: 0.0066 µg/mL
Kd [16]: 0.0047 µg/mL and 0.031 nM
EC50 [17]: 0.023 µg/mL
Kd [18]: 0.0085 µg/mL and 0.056 nM
